For one experiment, the target named is T1, cMet-his (Homo sapiens (Human), UniProt P08581 25-933).
T1 construct: also called his tagged cMET; Recombinant polyhistidine-tagged c-Met
Briefly: BLI (ForteBio Octet), antibody loaded on Protein A tips, his tagged cMET in solution, 1:1 model. The method, then:
Protocol: All reagents are equilibrated and samples are brought to room temperature. Protein A sensor tips (Fortebio, #18-5010) are hydrated for 10 min in 1×PBS. Kinetic assays are run using the Octet software and procedure per manufacturer's instruction. Assay steps typically include: 1-2 min of equilibration in 1×PBS, 4 min of antibody loading (conc: 50 μg/mL in 1×PBS), 1-2 min of baseline stabilization, 4 min of antibody:antigen association, and 4 min of antibody:antigen dissociation. 1×PBS is used as the matrix throughout. Data are analyzed with Octet Data Analysis software, processed, and fit to the curve using 1:1 binding model to determine kinetic parameters (Kₐ, Kₒₙ and Koff)

The target in experiment [1] is T2, Human EpCAM-Fc-his tagged (human).
T2 construct: also called Recombinant polyhistidine-tagged EpCAM-Fc; recombinant EpCAM
T2 sequence (chain, as listed by the source): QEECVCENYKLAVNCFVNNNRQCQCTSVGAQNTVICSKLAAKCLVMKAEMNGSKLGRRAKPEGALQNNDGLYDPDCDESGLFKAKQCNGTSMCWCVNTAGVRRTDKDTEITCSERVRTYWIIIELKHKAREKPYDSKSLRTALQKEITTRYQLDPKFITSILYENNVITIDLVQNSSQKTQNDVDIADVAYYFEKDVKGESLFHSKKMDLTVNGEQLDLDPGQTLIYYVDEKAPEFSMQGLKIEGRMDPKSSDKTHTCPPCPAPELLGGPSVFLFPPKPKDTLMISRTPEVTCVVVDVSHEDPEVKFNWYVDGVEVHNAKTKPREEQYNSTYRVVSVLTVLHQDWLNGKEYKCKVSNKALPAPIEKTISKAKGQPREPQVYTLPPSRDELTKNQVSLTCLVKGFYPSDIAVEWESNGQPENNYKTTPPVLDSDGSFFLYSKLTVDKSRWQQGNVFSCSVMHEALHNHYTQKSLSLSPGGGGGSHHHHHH
Briefly: BLI (ForteBio Octet), antibody loaded on Protein A tips, recombinant polyhistidine-tagged EpCAM-Fc in solution, 1:1 model. The procedure, abridged:
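Biolayer interferometry at room temperature in 1×PBS: antibody (50 μg/ml) captured on Protein A tips for 4 min, then 4 min association with antigen in solution and 4 min dissociation. Kd, kₒₙ and kdiss were obtained from a 1:1 binding model fit.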

The target in experiment [2] is T2, Human EpCAM-Fc-his tagged. Briefly: BLI (ForteBio Octet), repeat analysis, antibody on Protein A tips, recombinant polyhistidine-tagged EpCAM-Fc in solution, 1:1 model. Here is the method:
For Octet analysis, all reagents and samples are brought to room temperature. Protein A sensor tips (ForteBio, #18-5010) are hydrated for 10 minutes in 1×PBS. Assay steps include: 1-2 minutes of equilibration in 1×PBS, 4 minutes of antibody loading (concentration of 50 μg/ml in 1×PBS), 1-2 minutes of baseline stabilization, 4 minutes of antibody:antigen association, and 4 minutes of antibody:antigen dissociation. 1×PBS is used as the matrix throughout. Data are analyzed with Octet Data Analysis software, processed, and fit to a 1:1 binding model to determine kinetic parameters (Kd, kₒₙ and kdiss).
Table A-3 describes a repeat analysis for Ab#5, Ab#7, and Ab#13. For the repeat experiment, Kd and kdiss values for Ab#5, Ab#7, and Ab#13 are substantially equivalent to those determined for Ab#5, Ab#7, and Ab#13 in the initial experiment.

B1: Onartuzumab-39EGY4-2224 (bispecific antibody)
heavy: EVQLVESGGGLVQPGGSLRLSCAASGYTFTSYWLHWVRQAPGKGLEWVGMIDPSNSDTRFNPNFKDRFTISADTSKNTAYLQMNSLRAEDTAVYYCATYRSYVTPLDYWGQGTLVTVSSASTKGPSVFPLAPSSKSTSGGTAALGCLVKDYFPEPVTVSWNSGALTSGVHTFPAVLQSSGLYSLSSVVTVPSSSLGTQTYICNVNHKPSNTKVDKKVEPKSCDKTHTCPSCPAPEFLGGPSVFLFPPKPKDTLMISRTPEVTCVVVDVSQEDPEVQFNWYVDGVEVHNAKTKPREEQFNSKYRVVSVLTVLHQDWLNGKEYKCKVSNKGLPSSIEKTISKAKGQPREPQVYTLPPSREEMTKNQVSLSCAVKGFYPSDIAVEWESNGQPENNYKTTPPVLDSDGSFFLVSKLTVDKSRWQQGNVFSCSVMHEALHNHYTQKSLSLSKSCDKTGGGGSGGGGSGGGGSGGGGSGGGGSGGGGSGGGGSGGGGSCPSCPAPEFLGGPSVFLFPPKPKDTLMISRTPEVTCVVVDVSQEDPEVQFNWYVDGVEVHNAKTKPREEQFNSDYRVVSVLTVLHQDWLNGKEYKCKVSNKGLPSSIEKTISKAKGQPREPQVYTLPPSREEMTKNQVSLWCLVKGFYPSDIAVEWESNGQPENNYKTTPPVLDSDGSFFLYSKLTVDKSRWQQGNVFSCSVMHEALHNHYTQKSLSLSGECGGGGSGGGGSEVQLVQSGAEVKKPGSSVKVSCKASGGTFSSYAIGWVRQAPGQGLEWMGGIIPIFGIANYAQKFQGRVTITADESTSSAYMELSSLRSEDTAVYYCAREEGPYCSSTSCYAAFDIWGQGTLVTVSSASTGGGGSGGGGSGGGGSGGGGSQSVLTQDPAVSVALGQTVKITCQGDSLRSYFASWYQQKPGQAPTLVMYARNDRPAGVPDRFSGSKSGTSASLAISGLQPEDEADYYCAAWDDSLNGYLFGAGTKLTVL
light: DIQMTQSPSSLSASVGDRVTITCKSSQSLLYTSSQKNYLAWYQQKPGKAPKLLIYWASTRESGVPSRFSGSGSGTDFTLTISSLQPEDFATYYCQQYYAYPWTFGQGTKVEIKRTVAAPSVFIFPPSDEQLKSGTASVVCLLNNFYPREAKVQWKVDNALQSGNSQESVTEQDSKDSTYSLSSTLTLSKADYEKHKVYACEVTHQGLSSPVTKSFNRGEC
notes: Anti-c-Met Fab / TFc 39E glycoform 4 / anti-EGFR 2224 scFv; also called Onartuzumab-39EGY4-224; onartuzumab-39Egy-2224
For the molecule B1, the Kd with cMet-his is 1.29 nM.

B2: Onartuzumab-39EGY4-panitumumab (bispecific antibody)
heavy: EVQLVESGGGLVQPGGSLRLSCAASGYTFTSYWLHWVRQAPGKGLEWVGMIDPSNSDTRFNPNFKDRFTISADTSKNTAYLQMNSLRAEDTAVYYCATYRSYVTPLDYWGQGTLVTVSSASTKGPSVFPLAPSSKSTSGGTAALGCLVKDYFPEPVTVSWNSGALTSGVHTFPAVLQSSGLYSLSSVVTVPSSSLGTQTYICNVNHKPSNTKVDKKVEPKSCDKTHTCPSCPAPEFLGGPSVFLFPPKPKDTLMISRTPEVTCVVVDVSQEDPEVQFNWYVDGVEVHNAKTKPREEQFNSKYRVVSVLTVLHQDWLNGKEYKCKVSNKGLPSSIEKTISKAKGQPREPQVYTLPPSREEMTKNQVSLSCAVKGFYPSDIAVEWESNGQPENNYKTTPPVLDSDGSFFLVSKLTVDKSRWQQGNVFSCSVMHEALHNHYTQKSLSLSKSCDKTGGGGSGGGGSGGGGSGGGGSGGGGSGGGGSGGGGSGGGGSCPSCPAPEFLGGPSVFLFPPKPKDTLMISRTPEVTCVVVDVSQEDPEVQFNWYVDGVEVHNAKTKPREEQFNSDYRVVSVLTVLHQDWLNGKEYKCKVSNKGLPSSIEKTISKAKGQPREPQVYTLPPSREEMTKNQVSLWCLVKGFYPSDIAVEWESNGQPENNYKTTPPVLDSDGSFFLYSKLTVDKSRWQQGNVFSCSVMHEALHNHYTQKSLSLSGECGGGGSGGGGSQVQLQESGPGLVKPSETLSLTCTVSGGSVSSGDYYWTWIRQSPGKGLEWIGHIYYSGNTNYNPSLKSRLTISIDTSKTQFSLKLSSVTAADTAIYYCVRDRVTGAFDIWGQGTMVTSSASTGGGGSGGGGSGGGGSGGGGSDIQMTQSPSSLSASVGDRVTITCQASQDISNYLNWYQQKPGKAPKLLIYDASNLETGVPSRFSGSGSGTDFTFTISSLQPEDEATYFCQHFDHLPLAFGGGTKVEIKRT
light: DIQMTQSPSSLSASVGDRVTITCKSSQSLLYTSSQKNYLAWYQQKPGKAPKLLIYWASTRESGVPSRFSGSGSGTDFTLTISSLQPEDFATYYCQQYYAYPWTFGQGTKVEIKRTVAAPSVFIFPPSDEQLKSGTASVVCLLNNFYPREAKVQWKVDNALQSGNSQESVTEQDSKDSTYSLSSTLTLSKADYEKHKVYACEVTHQGLSSPVTKSFNRGEC
notes: Anti-c-Met Fab / TFc 39E glycoform 4 / anti-EGFR panitumumab scFv
B2: the affinity with cMet-his, expressed as Kd, was 1.6 nM.

B3: Onartuzumab-39EGY4-cetuximab (bispecific antibody)
heavy: EVQLVESGGGLVQPGGSLRLSCAASGYTFTSYWLHWVRQAPGKGLEWVGMIDPSNSDTRFNPNFKDRFTISADTSKNTAYLQMNSLRAEDTAVYYCATYRSYVTPLDYWGQGTLVTVSSASTKGPSVFPLAPSSKSTSGGTAALGCLVKDYFPEPVTVSWNSGALTSGVHTFPAVLQSSGLYSLSSVVTVPSSSLGTQTYICNVNHKPSNTKVDKKVEPKSCDKTHTCPSCPAPEFLGGPSVFLFPPKPKDTLMISRTPEVTCVVVDVSQEDPEVQFNWYVDGVEVHNAKTKPREEQFNSKYRVVSVLTVLHQDWLNGKEYKCKVSNKGLPSSIEKTISKAKGQPREPQVYTLPPSREEMTKNQVSLSCAVKGFYPSDIAVEWESNGQPENNYKTTPPVLDSDGSFFLVSKLTVDKSRWQQGNVFSCSVMHEALHNHYTQKSLSLSKSCDKTGGGGSGGGGSGGGGSGGGGSGGGGSGGGGSGGGGSGGGGSCPSCPAPEFLGGPSVFLFPPKPKDTLMISRTPEVTCVVVDVSQEDPEVQFNWYVDGVEVHNAKTKPREEQFNSDYRVVSVLTVLHQDWLNGKEYKCKVSNKGLPSSIEKTISKAKGQPREPQVYTLPPSREEMTKNQVSLWCLVKGFYPSDIAVEWESNGQPENNYKTTPPVLDSDGSFFLYSKLTVDKSRWQQGNVFSCSVMHEALHNHYTQKSLSLSGECGGGGSGGGGSQVQLVESGGGVVQPGESLRISCAVSGFSLTNYGVHWVRQAPGKGLEWLGVIWSGGNTDYNTPFTSRLTISKDNSKSTVYFQMNSLRAEDTAVYYCARALTYYDYEFAYWGQGTLVTVSSASTGGGGSGGGGSGGGGSGGGGSDIVLTQSPSSLSVTPGEKVTFTCRASQSIGTNIHWYQQKPGQSPKLLIKYASESISGVPSRFSGSGSGTDFTLTINSVEAEDAATYYCQQNNNWPTTFGQGTKLEIK
light: DIQMTQSPSSLSASVGDRVTITCKSSQSLLYTSSQKNYLAWYQQKPGKAPKLLIYWASTRESGVPSRFSGSGSGTDFTLTISSLQPEDFATYYCQQYYAYPWTFGQGTKVEIKRTVAAPSVFIFPPSDEQLKSGTASVVCLLNNFYPREAKVQWKVDNALQSGNSQESVTEQDSKDSTYSLSSTLTLSKADYEKHKVYACEVTHQGLSSPVTKSFNRGEC
notes: Anti-c-Met Fab / TFc 39E glycoform 4 / anti-EGFR cetuximab scFv
In the experiment with cMet-his, B3 showed a Kd of 0.9 nM.

B4: Onartuzumab (antibody)
chain 1: not shown
chain 2: DIQMTQSPSSLSASVGDRVTITCKSSQSLLYTSSQKNYLAWYQQKPGKAPKLLIYWASTRESGVPSRFSGSGSGTDFTLTISSLQPEDFATYYCQQYYAYPWTFGQGTKVEIKRTVAAPSVFIFPPSDEQLKSGTASVVCLLNNFYPREAKVQWKVDNALQSGNSQESVTEQDSKDSTYSLSSTLTLSKADYEKHKVYACEVTHQGLSSPVTKSFNRGEC
chain 3: not shown
B4 showed a Kd with cMet-his of 1.2 nM.

B5: Ab#13 (bispecific antibody)
heavy: QLQLQESGPGLVKPSETLSLTCTVSGGSISSSVYYWSWIRQPPGKGLEWIGVIYPSGNTYYSPSLKSRVTISVDTSKNQFSLKLSSVTAADTAVYYCARTIYDLFDIWGQGTMVTVSSASTKGPSVFPLAPSSKSTSGGTAALGCLVKDYFPEPVTVSWNSGALTSGVHTFPAVLQSSGLYSLSSVVTVPSSSLGTQTYICNVNHKPSNTKVDKKVEPKSCDKTHTCPSCPAPEFLGGPSVFLFPPKPKDTLMISRTPEVTCVVVDVSQEDPEVQFNWYVDGVEVHNAKTKPREEQFNSKYRVVSVLTVLHQDWLNGKEYKCKVSNKGLPSSIEKTISKAKGQPREPQVYTLPPSREEMTKNQVSLSCAVKGFYPSDIAVEWESNGQPENNYKTTPPVLDSDGSFFLVSKLTVDKSRWQQGNVFSCSVMHEALHNHYTQKSLSLSKSCDKTGGGGSGGGGSGGGGSGGGGSGGGGSGGGGSGGGGSGGGGSCPSCPAPEFLGGPSVFLFPPKPKDTLMISRTPEVTCVVVDVSQEDPEVQFNWYVDGVEVHNAKTKPREEQFNSDYRVVSVLTVLHQDWLNGKEYKCKVSNKGLPSSIEKTISKAKGQPREPQVYTLPPSREEMTKNQVSLWCLVKGFYPSDIAVEWESNGQPENNYKTTPPVLDSDGSFFLYSKLTVDKSRWQQGNVFSCSVMHEALHNHYTQKSLSLSGECGGGGSGGGGSDIVMTQSPSSLSASVGDKATITCRSTKSLLHSNGITYLYWYLQKPGKAPKLLIYQMSNLASGVPDRFSSSGSGTEFTLTISSVQPEDEGTYYCAQNLEIPRTFGQGTKLEIKRTPSHNSHQVPSAGGPTANSGTSGSQVQLQQSGGGLVKPGESVKISCAASGYTFTNYGMNWVKQAPGKGLKWMGWINTYTGESTYADDFKGRFTFSLETSASAAYLQINSLRPEDTAVYFCARFAIKGDYWGQGTTVTVSS
light: DIQMTQSPSSVSASVGDRVTITCRASQGISSWLAWYQQKPGKAPKLLIYAASSLQSGVPSRFSGSGSGTDFTLTISSLQPEDFATYYCLQANSFPPTFGGGTKVEIKRTVAAPSVFIFPPSDEQLKSGTASVVCLLNNFYPREAKVQWKVDNALQSGNSQESVTEQDSKDSTYSLSSTLTLSKADYEKHKVYACEVTHQGLSSPVTKSFNRGEC
notes: Anti-c-Met Fab / tandem Fc / anti-EpCAM scFv TFcBA; also called Antibody #13
B5: in experiment [1], the Kd amounted to 4.98 nM and the koff stood at 0.00036 s⁻¹. In experiment [2], the Kd amounted to 4.69 nM and the koff was found to be 0.000323 s⁻¹.

Values taken from patent US20140302035A1 (MERRIMACK PHARMACEUTICALS, published 2014).
